In publication PMC6340890, “Transcriptional mechanism of IRF8 and PU.1 governs microglial activation in neurodegenerative condition”:

B1: Ikbkb probe (dsDNA)
DNA 1: CCGTCCTCAGTTTCACTTCCTGTCAGTGCT
DNA 2: AGCACTGACAGGAAGTGAAACTGAGGACGG
B2: Tak1 probe (dsDNA)
DNA 1: CCTTCCATGGTTTCAGTTCCTCTTAAGGGA
DNA 2: TCCCTTAAGAGGAACTGAAACCATGGAAGG
B3: Nfkb1 probe (dsDNA)
DNA 1: TCCCCCCTGGTTTCCCTTCCTGTAAATACA
DNA 2: TGTATTTACAGGAAGGGAAACCAGGGGGGA
B4: Ripk2 probe (dsDNA)
DNA 1: ACAGTCTTACTTTCACTTCCTGAATTCATT
DNA 2: AATGAATTCAGGAAGTGAAAGTAAGACTGT

What was measured:
IRF8;PU.1 [1] = biological target: T1, IRF8;PU.1 (Mus musculus;Mus musculus, UniProt P23611;P17433 1-424;1-272, |); assay: EMSA; synergistic; LightShift Chemiluminescent EMSA Kit; buffer, salt and pH not stated; supershift incubation 4 °C, 20 min; details: protein: recombinant;recombinant; tags: Flag;Flag; copies: 1;1; label: 5'-biotin (both strands)
T1 sequence (P23611 whole entry, chain 1 of 2, other chains not shown): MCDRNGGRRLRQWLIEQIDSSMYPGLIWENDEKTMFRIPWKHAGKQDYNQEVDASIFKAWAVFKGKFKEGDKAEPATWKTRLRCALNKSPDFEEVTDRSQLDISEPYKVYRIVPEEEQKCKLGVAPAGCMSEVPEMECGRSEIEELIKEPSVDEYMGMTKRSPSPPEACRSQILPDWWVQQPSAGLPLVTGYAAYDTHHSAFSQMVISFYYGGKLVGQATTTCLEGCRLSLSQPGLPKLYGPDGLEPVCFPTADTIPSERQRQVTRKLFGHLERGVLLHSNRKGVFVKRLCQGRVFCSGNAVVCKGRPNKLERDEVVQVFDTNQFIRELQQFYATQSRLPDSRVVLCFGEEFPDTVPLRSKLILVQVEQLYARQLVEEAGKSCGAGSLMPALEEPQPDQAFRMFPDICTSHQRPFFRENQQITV

IRF8;PU.1 [2] = biological target: T1, IRF8;PU.1; assay: EMSA; synergistic; supershifted by anti-IRF8 and by anti-PU.1, not by control IgG; LightShift Chemiluminescent EMSA Kit; buffer, salt and pH not stated; supershift incubation 4 °C, 20 min; details: protein: recombinant;recombinant; tags: Flag;Flag; copies: 1;1; label: 5'-biotin (both strands)

Row | Binder | binding result (IRF8;PU.1 [1]) | binding result (IRF8;PU.1 [2])
1 | B1 | binds | –
2 | B2 | – | binds
3 | B3 | binds | –
4 | B4 | – | binds
